Measured values taken from the supplement of paper PMC7877785.
± gives the uncertainty stated by the source.

Experiment: self-splicing fitness, log relative to wild type (ln ratio); higher = more splicing; Tetrahymena group I intron in knt gene, E. coli kanamycin selection, DiMSum; sequences stand for … in CUCUCU…GGAGGGAAAAGUUAUCAGGCAUGCACCUGGUAGCUAGUCUUUAAACCAAUAGAUUGCAUCGGUUUAAAAGGCAAGACCGUCAAAUUGCGGGAAAGGGGUCAACAGCCGUUCAGUACCAAGUCUCAGGGGAAACUUUGAGAUGGCCUUGCAAAGGGUAUGGUAAUAAGCUGACGGACAUGGUCCUAACCACGCAGCCAAGUCCUAAGUCAACAGAUCUUCUGUUGAUAUGGAUGCAGUUCACAGACUAAAUGUCGGUCGGGGAAGAUGUAUUCUUCUCAUAAGAUAUAGUCGGACCUCUCCUUAAUGGGAGCUAGCGGAUGAAGUGAUGCAACACUGGAGCCGCUGGGAACUAAUUUGUAUGCGAAAGUAUAUUGAUUAGUUUUGGAGUACUCGUGGUCG
Method in brief: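 The eight P1ex-region nucleotides of an intron in the knt kanamycin-resistance gene on pET-22b(+) were all randomised and the library put into E. coli BL21(DE3). Six replicate transformations were grown overnight at 37°C or 30°C on LB agar with or without 25 μg/mL kanamycin, together with 100 μg/mL carbenicillin, 50 μM IPTG and 0.2% rhamnose. Colonies were pooled and amplicon-sequenced on an Illumina HiSeq 2500. Fitness from DiMSum is the error-weighted combination of wild-type-normalised replicate fold changes, kanamycin over none.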

| Sequence | self-splicing fitness (ln) (30 °C) | self-splicing fitness (ln) (37 °C) |
| --- | --- | --- |
| GGGCAGCAAUAUUACGCUAA | -0.45 ± 0.087 | 0.361 ± 0.14 |
| CAGAAGCAAUAUUACGCCAA | -3.35 ± 0.38 | – |
| UUCGAGCAAUAUUACGGGGC | -2.86 ± 0.27 | -1.48 ± 0.4 |
| CCAAAGCAAUAUUACGCCAU | -3.42 ± 0.17 | -1.88 ± 0.17 |
| GCCCAGCAAUAUUACGAACA | -1.58 ± 0.12 | -1.46 ± 0.11 |
| AGUUAGCAAUAUUACGCAGC | -2.29 ± 0.16 | -1.18 ± 0.16 |
| GGUGAGCAAUAUUACGUCUG | -3.31 ± 0.17 | -2.03 ± 0.14 |
| AAAAAGCAAUAUUACGUAUG | -2.02 ± 0.11 | -1.63 ± 0.13 |
| GUCCAGCAAUAUUACGUUGU | -0.537 ± 0.051 | 0.244 ± 0.066 |
| AUUGAGCAAUAUUACGCUAU | -3.5 ± 0.44 | -2.12 ± 0.42 |
| CGCGAGCAAUAUUACGUUUA | -3.98 ± 0.25 | -3.3 ± 0.28 |
| AUUAAGCAAUAUUACGAGUA | -2.07 ± 0.16 | -1.49 ± 0.13 |
| UUCUAGCAAUAUUACGAUAC | -2.08 ± 0.38 | -2.64 ± 0.41 |
| GGGCAGCAAUAUUACGUCCG | -0.61 ± 0.091 | -0.058 ± 0.14 |
| ACCCAGCAAUAUUACGGAAU | -0.884 ± 0.054 | -0.0542 ± 0.07 |
| GCAUAGCAAUAUUACGCUGC | -3.08 ± 0.44 | -2.11 ± 0.37 |
| UACCAGCAAUAUUACGGAGA | -1.13 ± 0.07 | -0.596 ± 0.073 |
| AACGAGCAAUAUUACGGGUC | -3.17 ± 0.22 | -1.65 ± 0.2 |
| AAUGAGCAAUAUUACGCCAU | -2.37 ± 0.39 | -1.9 ± 0.48 |

| Sequence | self-splicing fitness (ln) (30 °C) | self-splicing fitness (ln) (37 °C) |
| --- | --- | --- |
| GCCGAGCAAUAUUACGUGAC | -2.14 ± 0.15 | -1.16 ± 0.19 |
| GGCUAGCAAUAUUACGUCAA | -1.34 ± 0.11 | -0.747 ± 0.12 |
| AAGGAGCAAUAUUACGAGUA | -3.6 ± 0.43 | -3.21 ± 0.4 |
| AGUCAGCAAUAUUACGCGAG | -1.57 ± 0.16 | -0.523 ± 0.16 |
| UAUCAGCAAUAUUACGGGAA | -1.65 ± 0.1 | -0.124 ± 0.11 |
| AAGUAGCAAUAUUACGCCAU | -2.41 ± 0.23 | -0.903 ± 0.26 |
| CGGAAGCAAUAUUACGCUAA | -2.74 ± 0.17 | -3.01 ± 0.29 |
| CGUGAGCAAUAUUACGCUGC | -2.64 ± 0.32 | – |
| AGCGAGCAAUAUUACGACCU | -0.933 ± 0.15 | -0.654 ± 0.15 |
| GAGAAGCAAUAUUACGAUAG | -3.28 ± 0.14 | -2.28 ± 0.17 |
| CCACAGCAAUAUUACGGUGC | -4.03 ± 0.19 | -2.97 ± 0.2 |
| GCCGAGCAAUAUUACGGCAA | -2.4 ± 0.33 | -1.91 ± 0.31 |
| GGACAGCAAUAUUACGGUUG | -1.41 ± 0.067 | -0.752 ± 0.083 |
| GUGCAGCAAUAUUACGCACA | -3.26 ± 0.18 | -1.67 ± 0.12 |
| CCGCAGCAAUAUUACGUGCU | -2.05 ± 0.27 | – |
| CUGAAGCAAUAUUACGGGAG | -0.441 ± 0.067 | -0.168 ± 0.078 |
| GUUCAGCAAUAUUACGGGAG | -0.317 ± 0.077 | -0.683 ± 0.095 |
| UACGAGCAAUAUUACGGUAA | -1.82 ± 0.37 | -0.747 ± 0.28 |
| GAUAAGCAAUAUUACGGUAG | -3.17 ± 0.23 | -2.35 ± 0.27 |
